Data reported in patent US20230250154A1 (CYTONICS, published 2023).
Values belong to the binder of their own block, whether it stands above or below them.

How the values were obtained:
Assay in all cases: cell-based or functional assay
ADAMTS5 = target: T1, ADAMTS5 (human, UniProt Q9UNA0 262-622, limits assumed)
T1 sequence (looked up): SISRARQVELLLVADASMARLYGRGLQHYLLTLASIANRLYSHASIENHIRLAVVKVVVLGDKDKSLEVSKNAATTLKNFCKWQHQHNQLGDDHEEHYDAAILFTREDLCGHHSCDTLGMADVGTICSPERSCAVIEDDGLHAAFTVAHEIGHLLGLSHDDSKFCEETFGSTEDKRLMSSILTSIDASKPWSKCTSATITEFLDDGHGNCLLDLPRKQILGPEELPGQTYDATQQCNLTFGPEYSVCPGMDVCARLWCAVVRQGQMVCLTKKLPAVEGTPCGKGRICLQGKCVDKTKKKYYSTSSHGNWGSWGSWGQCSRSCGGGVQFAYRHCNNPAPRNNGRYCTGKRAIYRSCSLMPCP

ADAMTS4 = target: T2, ADAMTS4 (human, UniProt O75173 213-685, limits assumed)
T2 sequence (looked up): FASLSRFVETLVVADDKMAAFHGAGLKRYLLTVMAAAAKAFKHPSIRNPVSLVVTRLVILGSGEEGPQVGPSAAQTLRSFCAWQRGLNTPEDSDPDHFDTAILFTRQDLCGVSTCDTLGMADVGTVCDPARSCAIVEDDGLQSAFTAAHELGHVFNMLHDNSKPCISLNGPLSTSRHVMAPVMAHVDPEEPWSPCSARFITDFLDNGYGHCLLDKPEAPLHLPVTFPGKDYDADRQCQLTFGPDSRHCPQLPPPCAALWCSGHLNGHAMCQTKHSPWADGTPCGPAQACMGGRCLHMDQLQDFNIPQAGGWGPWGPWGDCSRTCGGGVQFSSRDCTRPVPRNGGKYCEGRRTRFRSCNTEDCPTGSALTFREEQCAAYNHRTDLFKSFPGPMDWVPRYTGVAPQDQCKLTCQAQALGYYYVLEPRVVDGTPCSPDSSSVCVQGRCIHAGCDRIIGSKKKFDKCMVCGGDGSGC

MMP13 = MMP13 (human, UniProt P45452 104-471, limits assumed)

Protease Inhibition (% of WT) (ADAMTS5): 115 % of WT
Protease Inhibition (% of WT) (ADAMTS4): 94 % of WT
Protease Inhibition (% of WT) (MMP13): 164 % of WT
B1: Variant A2M, bait region SEQ ID NO 105 (other)
chain: SVSGKPQYMVLVPSLLHTETTEKGCVLLSYLNETVTVSASLESVRGNRSLFTDLEAENDVLHCVAFAVPKSSSNEEVMFLTVQVKGPTQEFKKRTTVMVKNEDSLVFVQTDKSIYKPGQTVKFRVVSMDENFHPLNELIPLVYIQDPKGNRIAQWQSFQLEGGLKQFSFPLSSEPFQGSYKVVVQKKSGGRTEHPFTVEEFVLPKFEVQVTVPKIITILEEEMNVSVCGLYTYGKPVPGHVTVSICRKYSDASDCHGEDSQAFCEKFSGQLNSHGCFYQQVKTKVFQLKRKEYEMKLHTEAQIQEEGTVVELTGRQSSEITRTITKLSFVKVDSHFRQGIPFFGQVRLVDGKGVPIPNKVIFIRGNEANYYSNATTDEHGLVQFSINTTNVMGTSLTVRVNYKDRSPCYGYQWVSEEHEEAHHTAYLVFSPSKSFVHLEPMSHELPCGHTQTVQAHYILNGGTLLGLKKLSFYYLIMAKGGIVRTGTHGLLVKQEDMKGHFSISIPVKSDIAPVARLLIYAVLPTGDVIGDSAKYDVENCLANKVDLSFSPSQSLPASHAHLRVTAAPQSVCALRAVDQSVLLMKPDAELSASSVYNLLPEKDLTGFPGPLNDQDDEDCINRHNVYINGITYTPVSSTNEKDMYSFLEDMGLKAFTNSKIRKPKMCPQLEQYEMHGPEGLRVGGFKEGVEGEIEEGGGFKEGVEGKLRKYFPETWIWDLVVVNSAGVAEVGVTVPDTITEWKAGAFCLSEDAGLGISSTASLRAFQPFFVELTMPYSVIRGEAFTLKATVLNYLPKCIRVSVQLEASPAFLAVPVEKEQAPHCICANGRQTVSWAVTPKSLGNVNFTVSAEALESQELCGTEVPSVPEHGRKDTVIKPLLVEPEGLEKETTFNSLLCPSGGEVSEELSLKLPPNVVEESARASVSVLGDILGSAMQNTQNLLQMPYGCGEQNMVLFAPNIYVLDYLNETQQLTPEIKSKAIGYLNTGYQRQLNYKHYDGSYSTFGERYGRNQGNTWLTAFVLKTFAQARAYIFIDEAHITQALIWLSQRQKDNGCFRSSGSLLNNAIKGGVEDEVTLSAYITIALLEIPLTVTHPVVRNALFCLESAWKTAQEGDHGSHVYTKALLAYAFALAGNQDKRKEVLKSLNEEAVKKDNSVHWERPQKPKAPVGHFYEPQAPSAEVEMTSYVLLAYLTAQPAPTSEDLTSATNIVKWITKQQNAQGGFSSTQDTVVALHALSKYGAATFTRTGKAAQVTIQSSGTFSSKFQVDNNNRLLLQQVSLPELPGEYSMKVTGEGCVYLQTSLKYNILPEKEEFPFALGVQTLPQTCDEPKAHTSFQISLSVSYTGSRSASNMAIVDVKMVSGFIPLKPTVKMLERSNHVSRTEVSSNHVLIYLDKVSNQTLSLFFTVLQDVPVRDLKPAIVKVYDYYETDEFAIAEYNAPCSKDLGNADYKDDDDKGASHHHHHH

Protease Inhibition (% of WT) (ADAMTS5): 99 % of WT
Protease Inhibition (% of WT) (ADAMTS4): 100 % of WT
Protease Inhibition (% of WT) (MMP13): 80 % of WT
B2: Variant A2M, bait region SEQ ID NO 104 (other)
chain: SVSGKPQYMVLVPSLLHTETTEKGCVLLSYLNETVTVSASLESVRGNRSLFTDLEAENDVLHCVAFAVPKSSSNEEVMFLTVQVKGPTQEFKKRTTVMVKNEDSLVFVQTDKSIYKPGQTVKFRVVSMDENFHPLNELIPLVYIQDPKGNRIAQWQSFQLEGGLKQFSFPLSSEPFQGSYKVVVQKKSGGRTEHPFTVEEFVLPKFEVQVTVPKIITILEEEMNVSVCGLYTYGKPVPGHVTVSICRKYSDASDCHGEDSQAFCEKFSGQLNSHGCFYQQVKTKVFQLKRKEYEMKLHTEAQIQEEGTVVELTGRQSSEITRTITKLSFVKVDSHFRQGIPFFGQVRLVDGKGVPIPNKVIFIRGNEANYYSNATTDEHGLVQFSINTTNVMGTSLTVRVNYKDRSPCYGYQWVSEEHEEAHHTAYLVFSPSKSFVHLEPMSHELPCGHTQTVQAHYILNGGTLLGLKKLSFYYLIMAKGGIVRTGTHGLLVKQEDMKGHFSISIPVKSDIAPVARLLIYAVLPTGDVIGDSAKYDVENCLANKVDLSFSPSQSLPASHAHLRVTAAPQSVCALRAVDQSVLLMKPDAELSASSVYNLLPEKDLTGFPGPLNDQDDEDCINRHNVYINGITYTPVSSTNEKDMYSFLEDMGLKAFTNSKIRKPKMCPQLEQYEMHGPEGLRVGESESEGGGGGSLLGEFEVEGGFAGLPNGKLRKYFPETWIWDLVVVNSAGVAEVGVTVPDTITEWKAGAFCLSEDAGLGISSTASLRAFQPFFVELTMPYSVIRGEAFTLKATVLNYLPKCIRVSVQLEASPAFLAVPVEKEQAPHCICANGRQTVSWAVTPKSLGNVNFTVSAEALESQELCGTEVPSVPEHGRKDTVIKPLLVEPEGLEKETTFNSLLCPSGGEVSEELSLKLPPNVVEESARASVSVLGDILGSAMQNTQNLLQMPYGCGEQNMVLFAPNIYVLDYLNETQQLTPEIKSKAIGYLNTGYQRQLNYKHYDGSYSTFGERYGRNQGNTWLTAFVLKTFAQARAYIFIDEAHITQALIWLSQRQKDNGCFRSSGSLLNNAIKGGVEDEVTLSAYITIALLEIPLTVTHPVVRNALFCLESAWKTAQEGDHGSHVYTKALLAYAFALAGNQDKRKEVLKSLNEEAVKKDNSVHWERPQKPKAPVGHFYEPQAPSAEVEMTSYVLLAYLTAQPAPTSEDLTSATNIVKWITKQQNAQGGFSSTQDTVVALHALSKYGAATFTRTGKAAQVTIQSSGTFSSKFQVDNNNRLLLQQVSLPELPGEYSMKVTGEGCVYLQTSLKYNILPEKEEFPFALGVQTLPQTCDEPKAHTSFQISLSVSYTGSRSASNMAIVDVKMVSGFIPLKPTVKMLERSNHVSRTEVSSNHVLIYLDKVSNQTLSLFFTVLQDVPVRDLKPAIVKVYDYYETDEFAIAEYNAPCSKDLGNADYKDDDDKGASHHHHHH

Protease Inhibition (% of WT) (ADAMTS5): 93 % of WT
Protease Inhibition (% of WT) (ADAMTS4): 104 % of WT
Protease Inhibition (% of WT) (MMP13): 16 % of WT
B3: Variant A2M, bait region SEQ ID NO 106 (other)
chain: SVSGKPQYMVLVPSLLHTETTEKGCVLLSYLNETVTVSASLESVRGNRSLFTDLEAENDVLHCVAFAVPKSSSNEEVMFLTVQVKGPTQEFKKRTTVMVKNEDSLVFVQTDKSIYKPGQTVKFRVVSMDENFHPLNELIPLVYIQDPKGNRIAQWQSFQLEGGLKQFSFPLSSEPFQGSYKVVVQKKSGGRTEHPFTVEEFVLPKFEVQVTVPKIITILEEEMNVSVCGLYTYGKPVPGHVTVSICRKYSDASDCHGEDSQAFCEKFSGQLNSHGCFYQQVKTKVFQLKRKEYEMKLHTEAQIQEEGTVVELTGRQSSEITRTITKLSFVKVDSHFRQGIPFFGQVRLVDGKGVPIPNKVIFIRGNEANYYSNATTDEHGLVQFSINTTNVMGTSLTVRVNYKDRSPCYGYQWVSEEHEEAHHTAYLVFSPSKSFVHLEPMSHELPCGHTQTVQAHYILNGGTLLGLKKLSFYYLIMAKGGIVRTGTHGLLVKQEDMKGHFSISIPVKSDIAPVARLLIYAVLPTGDVIGDSAKYDVENCLANKVDLSFSPSQSLPASHAHLRVTAAPQSVCALRAVDQSVLLMKPDAELSASSVYNLLPEKDLTGFPGPLNDQDDEDCINRHNVYINGITYTPVSSTNEKDMYSFLEDMGLKAFTNSKIRKPKMCPQLEQYEMHGPEGLRVGESESEGGFAGLPNGKEEEGLGSIPENFFGVKLRKYFPETWIWDLVVVNSAGVAEVGVTVPDTITEWKAGAFCLSEDAGLGISSTASLRAFQPFFVELTMPYSVIRGEAFTLKATVLNYLPKCIRVSVQLEASPAFLAVPVEKEQAPHCICANGRQTVSWAVTPKSLGNVNFTVSAEALESQELCGTEVPSVPEHGRKDTVIKPLLVEPEGLEKETTFNSLLCPSGGEVSEELSLKLPPNVVEESARASVSVLGDILGSAMQNTQNLLQMPYGCGEQNMVLFAPNIYVLDYLNETQQLTPEIKSKAIGYLNTGYQRQLNYKHYDGSYSTFGERYGRNQGNTWLTAFVLKTFAQARAYIFIDEAHITQALIWLSQRQKDNGCFRSSGSLLNNAIKGGVEDEVTLSAYITIALLEIPLTVTHPVVRNALFCLESAWKTAQEGDHGSHVYTKALLAYAFALAGNQDKRKEVLKSLNEEAVKKDNSVHWERPQKPKAPVGHFYEPQAPSAEVEMTSYVLLAYLTAQPAPTSEDLTSATNIVKWITKQQNAQGGFSSTQDTVVALHALSKYGAATFTRTGKAAQVTIQSSGTFSSKFQVDNNNRLLLQQVSLPELPGEYSMKVTGEGCVYLQTSLKYNILPEKEEFPFALGVQTLPQTCDEPKAHTSFQISLSVSYTGSRSASNMAIVDVKMVSGFIPLKPTVKMLERSNHVSRTEVSSNHVLIYLDKVSNQTLSLFFTVLQDVPVRDLKPAIVKVYDYYETDEFAIAEYNAPCSKDLGNADYKDDDDKGASHHHHHH
